Consider 7 molecules from CN113321729A (DONGDA BIOTECHNOLOGY SUZHOU CO LTD, dated 2021).

T1: 携带组氨酸标签的人IL-12(IL-12-His) (human, UniProt P29459 23-219; P29460 23-328)
T1 construct: Recombinant His-tagged human IL-12 made in mammalian cells; Coated on the plate in the ELISA; also called IL-12蛋白; biotin标记的IL-12-His
T1 sequence (looked up) 1: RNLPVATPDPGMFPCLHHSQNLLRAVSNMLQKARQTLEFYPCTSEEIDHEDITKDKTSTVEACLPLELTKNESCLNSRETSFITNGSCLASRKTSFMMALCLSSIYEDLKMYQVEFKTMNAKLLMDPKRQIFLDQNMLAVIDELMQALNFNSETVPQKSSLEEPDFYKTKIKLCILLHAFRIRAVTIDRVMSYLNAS
T1 sequence (looked up) 2: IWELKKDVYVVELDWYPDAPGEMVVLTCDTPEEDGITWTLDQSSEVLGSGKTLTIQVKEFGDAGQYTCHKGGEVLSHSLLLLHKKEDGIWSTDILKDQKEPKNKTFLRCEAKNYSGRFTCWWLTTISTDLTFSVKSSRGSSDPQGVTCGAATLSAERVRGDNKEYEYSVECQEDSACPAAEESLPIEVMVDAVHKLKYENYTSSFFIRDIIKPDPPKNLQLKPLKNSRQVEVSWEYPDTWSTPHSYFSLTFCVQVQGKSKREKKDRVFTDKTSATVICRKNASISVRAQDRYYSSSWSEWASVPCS

B1: 2A3 (antibody, V domains shown)
VH: EVQLQQSGAELVKPGASVKLSCTASGFNIKDTYMHWLKQRPEQGLEWIGKIDPANGNTKYDPKFQGKATITADTSSNTAYLQLSSLTSEDTAVYYCSRRFYDSGFYYYFYIWGAGTTVTVSS
VL: NIMMTQSPSSLAVSAGEKVTMYCKSSQSVLYSSNQKNYLAWYQQKPGQSPKLLISWASTRESGVPDRFTGSGSGTDFTLTISSVQAEDLAVYYCHQYLSSLTFGAGTKLELK
notes: Mouse hybridoma antibody purified on Protein A; also called IL-12杂交瘤抗体
B2: 9E2 (antibody, V domains shown)
VH: EVQLQQSGAELVRPGASVKLSCTASGVNIKDYYMHWVKQRPEKGLEWIGMIDPEDGDTEYAPRFQAKATMTADTSSNTAYLQLNSLTSEDTAVYYCTITTVVRYFDVWGTGTTVRVSS
VL: DLVLSQSPATLSVTPGDSVSLSCRASQSISINLHWYQQKSHESPRLLIKYASQSISGIPSRFSGSGSGTDFTLSINSVETEDFGMYFCQQSNSWPFTFGGGTKLEIK
notes: as for B1
B3: 19A4 (antibody, V domains shown)
VH: EVQLVESGGGLVKPGGSLQVSCAASGFSFSSYGMSWVRQTPDKRLEWVATIGSGGLYTYSPDTVKGRFSISRDDAKNTLYLQMNSLTSEDTAMYYCATSGPFAYWGQGTLVTVSA
VL: DIKMTQSPSSMYASLGERVTITCKASQDINRNLNWFQQKPGNSPKTLIIRTNRLVDGVPSRFSGSGSGQVYSLTVSSLEFGDMGIYFCLQFDEFPWTFGGGTTLEIK
notes: as for B1
B4: 1B6 (antibody, V domains shown)
VH: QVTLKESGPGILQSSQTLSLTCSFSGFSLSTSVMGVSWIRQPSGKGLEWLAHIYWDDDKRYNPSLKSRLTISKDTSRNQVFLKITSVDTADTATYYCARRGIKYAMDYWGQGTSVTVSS
VL: NIVMTQTPKFLLVSAGDRVTITCKASQSVSNDVAWYQQKPGQSPKLLIYYASNRYTGVPDRFTGSGYGTDFTFTISTVQAEDLAVYFCQQDYTSPWTFGGGTKLEIK
notes: as for B1
B5: hu2A3 (antibody, V domains shown)
VH: QVQLVQSGAEVKKPGASVKVSCKASGFNIKDTYMHWVRQAPGQRLEWIGKIDPANGNTKYDPKFQGRATITADTSASTAYMELSSLRSEDTAVYYCSRRFYDSGFYYYFYIWGQGTLVTVSS
VL: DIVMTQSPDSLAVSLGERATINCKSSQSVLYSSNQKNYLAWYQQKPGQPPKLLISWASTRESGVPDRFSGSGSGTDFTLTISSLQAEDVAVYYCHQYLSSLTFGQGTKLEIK
notes: also called 2A3人源化抗体; 人源化抗体2A3
B6: hu11B4 (antibody, V domains shown)
VH: QVQLVQSGAEVKKPGASVKVSCKASGYAFTDYKMHWVRQAPGQRLEWIGHIYTYNGGADYNQKFKNRATLTVDISASTAYMELSSLRSEDTAVYYCATSGPFAYWGQGTLVTVSS
VL: EIVMTQSPATLSVSPGERATLSCKASQNVGTNVAWYQQKPGQAPRALIYSASKRFSGIPARFSGSGSGTEFTLTISSLQSEDFAVYYCLQYNNFPFTFGQGTKLEIK
notes: also called 11B4人源化抗体; 人源化抗体11B4
B7: Ustekinumab (antibody, V domains shown)
VH: EVQLVQSGAEVKKPGESLKISCKGSGYSFTTYWLGWVRQMPGKGLDWIGIMSPVDSDIRYSPSFQGQVTMSVDKSITTAYLQWNSLKASDTAMYYCARRRPGQGYFDFWGQGTLVTVSS
VL: DIQMTQSPSSLSASVGDRVTITCRASQGISSWLAWYQQKPEKAPKSLIYAASSLQSGVPSRFSGSGSGTDFTLTISSLQPEDFATYYCQQYNIYPYTFGQGTKLEIK

The IC50 is the concentration at which inhibition is half-maximal. Read a high IC50 as weaker potency in that assay. As a reminder, the EC50 is the midpoint of the concentration-response curve. Read a high EC50 as lower potency in that assay.

The target of the first experiment is T1, 携带组氨酸标签的人IL-12(IL-12-His). The experiment can be described thus: ELISA, IL-12-His coated on plate. For orientation: In an ELISA, binding on a coated surface is turned into a signal by an enzyme label.
Take B1: the binding result is listed as “binds”.

As to B2, the binding result is recorded as “binds”.

B3: the binding result is recorded as “binds”.

B4: the binding result is reported as “binds”.

Another experiment has as its target T1, 携带组氨酸标签的人IL-12(IL-12-His). In words: FACS, blocking of biotin-labelled IL-12-His binding to CHO-IL-12R cells. Background: Flow cytometry measures light scatter and fluorescence of single cells or particles in a stream.
Molecule B5 showed an IC50 of 0.398 µg/mL.

Molecule B6 came in with an IC50 of 0.323 µg/mL.

The molecule B7 showed an IC50 of 0.224 µg/mL.

Another experiment concerns the target T1, 携带组氨酸标签的人IL-12(IL-12-His). In words: ELISA, IL-12-His coated on plate. The source holds these as a separate data set.
The molecule B5 returned an EC50 of 0.0571 µg/mL.

With B6, the EC50 was found to be 0.0517 µg/mL.

Regarding B7, the EC50 turned out to be 0.0718 µg/mL. This EC50 and that of the molecule before are within 1.5-fold of each other.
